The source of these data is patent publication US20220110942A1 (SAINT LOUIS UNIVERSITY, published 2022).

Ends that are not written are not given here. fluorescein = fluorescein tag at the N-terminus

First the molecules themselves.
B1: NCoR ID1 corepressor peptide, N-terminus fluorescein-tagged (peptide)
peptide: fluorescein-RTHLITLADHICQIITQDFARN
notes: Bought from ThermoFisher Scientific; 500 nM in the FP assay; also called NCoR box 1
B2: NCoR ID2 corepressor peptide, N-terminus fluorescein-tagged (peptide)
peptide: fluorescein-DPASNLGLEDIIRKALMGSFDDK
notes: Bought from ThermoFisher Scientific; 500 nM in the FP assay; also called NCoR box 2
B3: Human GCNF (NR6A1) ligand binding domain (LBD), residues 248-480, hexahistidine-tagged (receptor, UniProt Q15406 248-480, looked up)
chain: PQSYSLIHQLLSAEDLEPLGTPMLIEDGYAVTQAELFALLCRLADELLFRQIAWIKKLPFFCELSIKDYTCLLSSTWQELILLSSLTVYSKQIFGELADVTAKYSPSDEELHRFSDEGMEVIERLIYLYHKFHQLKVSNEEYACMKAINFLNQDIRGLTSASQLEQLNKRYWYICQDFTEYKYTHQPNRFPDLMMCLPEIRYIAGKMVNVPLEQLPLLFKVVLHSCKTSVGKE
notes: range 248-480; Expressed in E. coli as a 263-amino acid hexahistidine-tagged construct (30.4 kDa); about 60 kDa homodimer by analytical size exclusion; The tag is placed first as a guess; also called GCNF LBD; wild-type GCNF; not shown: 3C protease-cleavable hexahistidine tag from pET45b(+)
B4: SMRT ID1 corepressor peptide, N-terminus fluorescein-tagged (peptide)
peptide: fluorescein-GHQRVVTLAQHISEVITQDYTRH
notes: Bought from ThermoFisher Scientific; 500 nM in the FP assay; also called SMRT box 1

For data set [1], the target named is B3. In words: fluorescence polarization, 500 nM fluorescein-tagged peptide, GCNF LBD titrated 0-70 µM. On the procedure: GCNF protein binds directly to DR0 sites or direct repeats of AGGTCA with no spacing between half sites in the promoters of both the Oct4 and Nanog genes and is thought to repress target genes via interactions with corepressors SMRT and NCoR (Furhmann et al., 2001; Gu et al., 2005; Yan et al., 2000). To determine whether ligand binding can affect the interaction between GCNF and its associated corepressor proteins SMRT and NCoR, a fluorescence polarization assay was performed to monitor the ability of ligands to affect corepressor peptide recruitment to the GCNF LBD. Since GCNF LBD was predicted to interact with transcriptional corepressors NCoR and SMRT via its N-terminal portion (Furhmann et al., 2001; Yan et al., 1997; Yan et al., 2000), an FP assay was initially performed consisting of different fluorescein-tagged peptides derived from these corepressors. […] Meanwhile, titrating 34, but not ligand 80, increased the recruitment of SMRT ID2, the tighter binding corepressor peptide (FIG. 4C). […]
(§1) FP Assay. Fluorescence polarization (FP) assays were performed in triplicate on a 384-well Corning 3820 black opaque plate using a Biotek Synergy Neo2 HTS multimode microplate reader at excitation and emission wavelengths of 485 nm and 538 nm, respectively. Data were analyzed and plotted using GraphPad Prism as mean±SEM.

Data set [2] deals with B3. Nature of the data set: fluorescence polarization, 500 nM fluorescein-tagged peptide, GCNF LBD titrated. The method, then:
as §1
For the corepressor peptide FP binding assay, 70.0, 35.0, 17.5, 8.8, 4.4, 2.2, 1.1, 0.55, 0.27, 0.14, and 0 μM of GCNF LBD was mixed with 500 nM N-terminus fluorescein-tagged corepressor peptides NCoR ID1 ([…] (SEQ ID NO: 1)), NCoR ID2 ([…] (SEQ ID NO: 2)), SMRT ID1 ([…] (SEQ ID NO: 3)), or SMRT ID2 ([…] (SEQ ID NO: 4)) (ThermoFisher Scientific) in assay buffer containing 50 mM HEPES (pH 7.5), 50 mM KCl, 5 mM TCEP, 0.5 mM EDTA and 0.005% Tween20. The relative polarization was plotted against the GCNF LBD concentration and fitted via nonlinear regression (one site specific binding with Hill slope) to extract KD.
On the technique in general: Polarisation of emitted light reports the rotation of a fluorescent probe.

Data set [3] deals with the molecule itself. Nature of the data set: analytical size exclusion chromatography with SDS-PAGE of the pooled fractions.

A word on the Kd: it is the free concentration of one partner at which half of the binding sites on the other are occupied at equilibrium, for simple one-to-one binding.

In the case of B1, in data set [1], the Kd stood at 32 µM.

For B2, the binding result in data set [2] is “no binding (tested: GCNF LBD up to 70.0 µM)”.

Regarding B3, in data set [3], the binding result is reported as “binds”. On to B4, for which the binding result in data set [2] was “no binding (tested: GCNF LBD up to 70.0 µM)”.
